Here are results for 23 molecules from patent US20130157953A1, “TREATMENT OF CARDIAC CONDITIONS” (Zealand Pharma A/S, priority 2010, published 2013).

Numbered stars: 1 amine (or outer) side, 2 acyl side, 3 side chain; on linkers, the order of the positions; unused ones are H or OH. Bridge positions count the residues as written; N and C are the ends. Square brackets hold non-standard residues; d marks the D form. Side chains are listed from the residue outwards. * marks the point of attachment. γGlu = O=C(O)[C@H](CCC(=O)[*:2])N[*:1]; Palmitoyl = CCCCCCCCCCCCCCCC(=O)*; Aib = CC(C)(N)C(=O)O

In assay [1] the target is human glucagon receptor (Glucagon-R) (human, UniProt P47871 26-477). The assay can be described thus: cell-based or functional assay.
The target of assay [2] is human glucagon-like peptide 1 receptor (GLP-1R) (human, UniProt P43220 24-463). Put plainly: cell-based or functional assay.

Sequence of human glucagon receptor (Glucagon-R) (P47871 26-477): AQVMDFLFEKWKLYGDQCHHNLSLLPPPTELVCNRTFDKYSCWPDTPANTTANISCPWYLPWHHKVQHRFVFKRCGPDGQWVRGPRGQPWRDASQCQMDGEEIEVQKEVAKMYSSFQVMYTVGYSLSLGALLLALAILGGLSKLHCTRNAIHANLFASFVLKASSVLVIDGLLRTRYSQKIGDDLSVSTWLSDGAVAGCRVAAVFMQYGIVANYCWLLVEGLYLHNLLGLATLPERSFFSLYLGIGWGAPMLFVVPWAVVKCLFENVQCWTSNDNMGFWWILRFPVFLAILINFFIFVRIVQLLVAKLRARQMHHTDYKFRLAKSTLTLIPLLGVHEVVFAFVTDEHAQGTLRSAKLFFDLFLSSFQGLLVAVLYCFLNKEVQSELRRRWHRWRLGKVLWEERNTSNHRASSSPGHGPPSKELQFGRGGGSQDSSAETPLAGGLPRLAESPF

B1: Compound 204 (peptide)
peptide: H-HSQGTFTSDYSKYLDSKAAK([γGlu-Palmitoyl])DFVEWLLRA-NH2
SMILES: CCCCCCCCCCCCCCCC(=O)N[C@@H](CCC(=O)NCCCC[C@H](NC(=O)[C@H](C)NC(=O)[C@H](C)NC(=O)[C@H](CCCCN)NC(=O)[C@H](CO)NC(=O)[C@H](CC(=O)O)NC(=O)[C@H](CC(C)C)NC(=O)[C@H](Cc1ccc(O)cc1)NC(=O)[C@H](CCCCN)NC(=O)[C@H](CO)NC(=O)[C@H](Cc1ccc(O)cc1)NC(=O)[C@H](CC(=O)O)NC(=O)[C@H](CO)NC(=O)[C@@H](NC(=O)[C@H](Cc1ccccc1)NC(=O)[C@@H](NC(=O)CNC(=O)[C@H](CCC(N)=O)NC(=O)[C@H](CO)NC(=O)[C@@H](N)Cc1c[nH]cn1)[C@@H](C)O)[C@@H](C)O)C(=O)N[C@@H](CC(=O)O)C(=O)N[C@@H](Cc1ccccc1)C(=O)N[C@H](C(=O)N[C@@H](CCC(=O)O)C(=O)N[C@@H](Cc1c[nH]c2ccccc12)C(=O)N[C@@H](CC(C)C)C(=O)N[C@@H](CC(C)C)C(=O)N[C@@H](CCCNC(=N)N)C(=O)N[C@@H](C)C(N)=O)C(C)C)C(=O)O
Regarding B1, the “EC50 (nM) GuR; cAMP content, HEK293 cells expressing the human glucagon receptor” value (shortened to “EC50 (nM) GuR; cAMP content”) in assay [1] is 0.04 nM.
Take H-HSQGTFTSDYSKYLDSKAAHDFVEWLLRA-NH2 [Compound 48]: the “EC50 (nM) GLP-1R; cAMP content, HEK293 cells expressing human GLP-1R” value (“EC50 (nM) GLP-1R; cAMP content” for short) in assay [2] was found to be 0.06 nM. Further, the “EC50 (nM) GuR; cAMP content” value in assay [1] was determined as 0.06 nM.
Regarding H-HSQGTFTSDYSKYLDRARADDFVAWLKST-NH2 [Compound 12], the “EC50 (nM) GLP-1R; cAMP content” value in assay [2] was 0.23 nM. The “EC50 (nM) GuR; cAMP content” value in assay [1] stood at 0.5 nM.
As to H-HSQGTFTSDYSKYLDSRYAQDFVWLMNT-NH2 [Compound 247], in assay [2], the “EC50 (nM) GLP-1R; cAMP content” value was 0.3 nM.
Consider H-HSQGTFTSDYSKYLDSRAAQDFVWLMNT-NH2 [Compound 246], for which, in assay [2], the “EC50 (nM) GLP-1R; cAMP content” value was found to be 0.3 nM. Besides, the “EC50 (nM) GuR; cAMP content” value in assay [1] came to 0.05 nM.
As to H-HSQGTFTSDYSKYLDSERAQDFVWLMNT-NH2 [Compound 243], the “EC50 (nM) GuR; cAMP content” value in assay [1] was determined as 0.06 nM.
For the molecule H-HSQGTFTSDYSKYLDSALAQDFVWLLNT-NH2 [Compound 255], the “EC50 (nM) GLP-1R; cAMP content” value in assay [2] came to 0.24 nM.

B2: Compound 257 (peptide)
peptide: H-HSQGTFTSDYSKYLDKRRAEDFVWLMNT-NH2
modifications: lactam 16-20
SMILES: CSCC[C@H](NC(=O)[C@H](CC(C)C)NC(=O)[C@H](Cc1c[nH]c2ccccc12)NC(=O)[C@@H](NC(=O)[C@H](Cc1ccccc1)NC(=O)[C@H](CC(=O)O)NC(=O)[C@@H]1CCC(=O)NCCCC[C@H](NC(=O)[C@H](CC(=O)O)NC(=O)[C@H](CC(C)C)NC(=O)[C@H](Cc2ccc(O)cc2)NC(=O)[C@H](CCCCN)NC(=O)[C@H](CO)NC(=O)[C@H](Cc2ccc(O)cc2)NC(=O)[C@H](CC(=O)O)NC(=O)[C@H](CO)NC(=O)[C@@H](NC(=O)[C@H](Cc2ccccc2)NC(=O)[C@@H](NC(=O)CNC(=O)[C@H](CCC(N)=O)NC(=O)[C@H](CO)NC(=O)[C@@H](N)Cc2c[nH]cn2)[C@@H](C)O)[C@@H](C)O)C(=O)N[C@@H](CCCNC(=N)N)C(=O)N[C@@H](CCCNC(=N)N)C(=O)N[C@@H](C)C(=O)N1)C(C)C)C(=O)N[C@@H](CC(N)=O)C(=O)N[C@H](C(N)=O)[C@@H](C)O
Regarding B2, the “EC50 (nM) GuR; cAMP content” value in assay [1] is 0.09 nM.
For the molecule H-HSQGTFTSDYSKYLDSKAAQDFVWLMNT-NH2 [Compound 260], the “EC50 (nM) GLP-1R; cAMP content” value in assay [2] was found to be 0.02 nM. Further, the “EC50 (nM) GuR; cAMP content” value in assay [1] was 0.07 nM.
Turning to H-HSQGTFTSDYSKYLDSRSAQDFVWLMNT-NH2 [Compound 245], the “EC50 (nM) GuR; cAMP content” value in assay [1] worked out at 0.05 nM.

B3: Compound 205 (peptide)
peptide: H-HSQGTFTSDYSKYLDSKAAHDFVEWLLK([γGlu-Palmitoyl])A-NH2
SMILES: CCCCCCCCCCCCCCCC(=O)N[C@@H](CCC(=O)NCCCC[C@H](NC(=O)[C@H](CC(C)C)NC(=O)[C@H](CC(C)C)NC(=O)[C@H](Cc1c[nH]c2ccccc12)NC(=O)[C@H](CCC(=O)O)NC(=O)[C@@H](NC(=O)[C@H](Cc1ccccc1)NC(=O)[C@H](CC(=O)O)NC(=O)[C@H](Cc1c[nH]cn1)NC(=O)[C@H](C)NC(=O)[C@H](C)NC(=O)[C@H](CCCCN)NC(=O)[C@H](CO)NC(=O)[C@H](CC(=O)O)NC(=O)[C@H](CC(C)C)NC(=O)[C@H](Cc1ccc(O)cc1)NC(=O)[C@H](CCCCN)NC(=O)[C@H](CO)NC(=O)[C@H](Cc1ccc(O)cc1)NC(=O)[C@H](CC(=O)O)NC(=O)[C@H](CO)NC(=O)[C@@H](NC(=O)[C@H](Cc1ccccc1)NC(=O)[C@@H](NC(=O)CNC(=O)[C@H](CCC(N)=O)NC(=O)[C@H](CO)NC(=O)[C@@H](N)Cc1c[nH]cn1)[C@@H](C)O)[C@@H](C)O)C(C)C)C(=O)N[C@@H](C)C(N)=O)C(=O)O
In the case of B3, in assay [2], the “EC50 (nM) GLP-1R; cAMP content” value was found to be 0.09 nM.
H-HSQGTFTSDYSRYLDSRRAQDFVWLLNT-NH2 [Compound 253]: the “EC50 (nM) GLP-1R; cAMP content” value in assay [2] worked out at 0.2 nM.
Turning to H-HSQGTFTSDYSKYLDKRRAEDFVWLMNT-NH2 [Compound 256], the “EC50 (nM) GLP-1R; cAMP content” value in assay [2] turned out to be 0.2 nM. The “EC50 (nM) GuR; cAMP content” value in assay [1] stood at 0.07 nM.
For the molecule H-HSQGTFTSDYSKYLDSRHAQDFVWLMNT-NH2 [Compound 244], the “EC50 (nM) GLP-1R; cAMP content” value in assay [2] was found to be 0.5 nM. For the same molecule, the “EC50 (nM) GuR; cAMP content” value in assay [1] turned out to be 0.05 nM.
For H-HSQGTFTSDYSKYLDSRRAQDFVWLKRA-NH2 [Compound 250], the “EC50 (nM) GLP-1R; cAMP content” value in assay [2] is 0.3 nM.

B4: Compound 263 (peptide)
peptide: H-H[Aib]QGTFTSDYSKYLDEK([γGlu-Palmitoyl])RAKDFIEWLLSA-NH2
SMILES: CCCCCCCCCCCCCCCC(=O)N[C@@H](CCC(=O)NCCCC[C@H](NC(=O)[C@H](CCC(=O)O)NC(=O)[C@H](CC(=O)O)NC(=O)[C@H](CC(C)C)NC(=O)[C@H](Cc1ccc(O)cc1)NC(=O)[C@H](CCCCN)NC(=O)[C@H](CO)NC(=O)[C@H](Cc1ccc(O)cc1)NC(=O)[C@H](CC(=O)O)NC(=O)[C@H](CO)NC(=O)[C@@H](NC(=O)[C@H](Cc1ccccc1)NC(=O)[C@@H](NC(=O)CNC(=O)[C@H](CCC(N)=O)NC(=O)C(C)(C)NC(=O)[C@@H](N)Cc1c[nH]cn1)[C@@H](C)O)[C@@H](C)O)C(=O)N[C@@H](CCCNC(=N)N)C(=O)N[C@@H](C)C(=O)N[C@@H](CCCCN)C(=O)N[C@@H](CC(=O)O)C(=O)N[C@@H](Cc1ccccc1)C(=O)N[C@H](C(=O)N[C@@H](CCC(=O)O)C(=O)N[C@@H](Cc1c[nH]c2ccccc12)C(=O)N[C@@H](CC(C)C)C(=O)N[C@@H](CC(C)C)C(=O)N[C@@H](CO)C(=O)N[C@@H](C)C(N)=O)[C@@H](C)CC)C(=O)O
B4: in assay [1], the “EC50 (nM) GuR; cAMP content” value worked out at 0.16 nM.
For the molecule H-HSQGTFTSDYSRYLDSRRAKDFVWLLNT-NH2 [Compound 252], the “EC50 (nM) GLP-1R; cAMP content” value in assay [2] came out at 0.5 nM. In addition, in assay [1], the “EC50 (nM) GuR; cAMP content” value came out at 0.3 nM.
In the case of H-HSQGTFTSDYSKYLDSRRAQDFVWLERA-NH2 [Compound 251], in assay [2], the “EC50 (nM) GLP-1R; cAMP content” value worked out at 0.2 nM.
As for H-HSQGTFTSDYSRYLDSRRAQDFVWLLNK-NH2 [Compound 254], the “EC50 (nM) GLP-1R; cAMP content” value in assay [2] was 0.2 nM. In addition, the “EC50 (nM) GuR; cAMP content” value in assay [1] worked out at 0.2 nM.
For H-HSQGTFTSDYSRYLDERRAQDFVWLMNT-NH2 [Compound 258], the “EC50 (nM) GLP-1R; cAMP content” value in assay [2] was 0.07 nM. Moreover, the “EC50 (nM) GuR; cAMP content” value in assay [1] amounted to 0.06 nM.
As for H-HSQGTFTSDYSKYLDSRRAQDFVWLESA-NH2 [Compound 248], the “EC50 (nM) GLP-1R; cAMP content” value in assay [2] was 0.5 nM.

B5: Compound 259 (peptide)
peptide: H-HSQGTFTSDYSKYLDERRAQDFVWLMNT-NH2
modifications: lactam 12-16
SMILES: CSCC[C@H](NC(=O)[C@H](CC(C)C)NC(=O)[C@H](Cc1c[nH]c2ccccc12)NC(=O)[C@@H](NC(=O)[C@H](Cc1ccccc1)NC(=O)[C@H](CC(=O)O)NC(=O)[C@H](CCC(N)=O)NC(=O)[C@H](C)NC(=O)[C@H](CCCNC(=N)N)NC(=O)[C@H](CCCNC(=N)N)NC(=O)[C@@H]1CCC(=O)NCCCC[C@H](NC(=O)[C@H](CO)NC(=O)[C@H](Cc2ccc(O)cc2)NC(=O)[C@H](CC(=O)O)NC(=O)[C@H](CO)NC(=O)[C@@H](NC(=O)[C@H](Cc2ccccc2)NC(=O)[C@@H](NC(=O)CNC(=O)[C@H](CCC(N)=O)NC(=O)[C@H](CO)NC(=O)[C@@H](N)Cc2c[nH]cn2)[C@@H](C)O)[C@@H](C)O)C(=O)N[C@@H](Cc2ccc(O)cc2)C(=O)N[C@@H](CC(C)C)C(=O)N[C@@H](CC(=O)O)C(=O)N1)C(C)C)C(=O)N[C@@H](CC(N)=O)C(=O)N[C@H](C(N)=O)[C@@H](C)O
Turning to B5, in assay [2], the “EC50 (nM) GLP-1R; cAMP content” value came to 0.04 nM. Also, the “EC50 (nM) GuR; cAMP content” value in assay [1] is 0.03 nM.
For the molecule H-H[Aib]QGTFTSDYSKYLDSK([3‑aminopropanoyl-Palmitoyl])AAHDFVEWLLSA-NH2 [Compound 215], in assay [1], the “EC50 (nM) GuR; cAMP content” value worked out at 1.87 nM.
